The term Kd denotes the constant that tells how readily two partners part at equilibrium. A high value points to lower affinity.

The results in this text go back to paper PMC3918441.

In the experiment the target is KDM5B PHD1 finger (wild type) (human). In words: other fluorescence titration.

As for “H3K4me0 peptide (aa 1-12 of H3) (from UniProt P68431 2-13)”, the Kd was determined as 1500 nM.
